This is an account of results in patent US20160194641, “G-RICH isoDNA SEQUENCES FORMING G-QUADRUPLEX STRUCTURE, THEIR FUNCTION AS [sequence] AND A PROCESS FOR THE PREPARATION THEREOF” (COUNCIL OF SCIENTIFIC & INDUSTRIAL RESEARCH, published 2016).

This data set concerns the target thrombin (Bos taurus, UniProt P00735;P00735 P00735:318-366,P00735:367-625). As to the kind of experiment: CD titration at 295 nm, low temperature, without K+; signal increases with thrombin; Tm with thrombin 22 C (53 C with K+). The conditions noted are these: tags: copies: 1; antiparallel unimolecular G4. As for the experimental part: CD spectra were recorded on Jasco J-815 CD Spectrometer equipped with a Jasco PTC-424S/15 peltier system. 2 mm path-length quartz cuvettes were used for a sample volume 500 μl and strand concentration of 5 μM in 10 mM Na/K-phosphate buffer (pH 7.5) containing 100 mM NaCl/KCl respectively. Oligomers prepared in buffer were annealed by heating at 95° C. for 5 minutes, then slowly cooled to room temperature, followed by refrigeration for 5-6 hours before use. Spectral scans were collected over a wavelength range 200-320 nm at a scanning rate of 100 nm min⁻¹. The spectra were collected as an average of three scans for each sample.
Biochem. Biophys. Res. Commun. 352, 812-817 (2007). […] An increase in the CD signal amplitude upon incremental addition of thrombin is observed even at relatively low concentrations of thrombin. In case of isod-TBA-2 and isod-TBA-3, CD band at 295 nm and G-quadruplex structure was not evident in the absence of either thrombin or K⁺, which is also supported by ¹H NMR. Upon incremental addition of thrombin, the CD maximum at 295 nm emerges for isod-TBA-2 and isod-TBA-3. […] Further, the temperature-dependent stability of the quadruplex structure was followed by recording the CD amplitude at 295 nm with increasing temperature. The strength of d-TBA-1 G-quadruplex was the highest with Tₘ=22° C., followed by iso-d-TBA-3 (Tₘ 13° C.) and iso-d-TBA-2 (Tₘ<10° C.). […]

As for GGTTGGTGTGGTTGG (structured_DNA) [d-TBA-1], the binding result was “binds”.
